T1: Recombinant mouse IL-1RAP-his (Sino Biologicals, catalog no. 52657-M08H) (mouse, UniProt Q61730 21-350)
T1 construct: Bought; not shown: His tag of the bought protein
T1 sequence: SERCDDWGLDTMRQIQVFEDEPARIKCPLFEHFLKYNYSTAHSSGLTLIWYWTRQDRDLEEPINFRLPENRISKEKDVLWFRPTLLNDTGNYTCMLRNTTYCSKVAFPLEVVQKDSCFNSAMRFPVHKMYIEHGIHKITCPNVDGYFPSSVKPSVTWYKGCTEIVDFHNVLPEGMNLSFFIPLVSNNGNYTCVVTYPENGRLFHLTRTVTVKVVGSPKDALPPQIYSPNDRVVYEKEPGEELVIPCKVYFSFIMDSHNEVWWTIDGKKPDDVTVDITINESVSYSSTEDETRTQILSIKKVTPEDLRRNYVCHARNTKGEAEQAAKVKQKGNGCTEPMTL

T2: Human IL-1RAP, membrane-bound on human cells (HaCaT, dermal fibroblasts, neutrophils, PBMC, whole blood) (human, UniProt Q9NPH3 21-570)
T2 construct: Endogenous protein on cells
T2 sequence: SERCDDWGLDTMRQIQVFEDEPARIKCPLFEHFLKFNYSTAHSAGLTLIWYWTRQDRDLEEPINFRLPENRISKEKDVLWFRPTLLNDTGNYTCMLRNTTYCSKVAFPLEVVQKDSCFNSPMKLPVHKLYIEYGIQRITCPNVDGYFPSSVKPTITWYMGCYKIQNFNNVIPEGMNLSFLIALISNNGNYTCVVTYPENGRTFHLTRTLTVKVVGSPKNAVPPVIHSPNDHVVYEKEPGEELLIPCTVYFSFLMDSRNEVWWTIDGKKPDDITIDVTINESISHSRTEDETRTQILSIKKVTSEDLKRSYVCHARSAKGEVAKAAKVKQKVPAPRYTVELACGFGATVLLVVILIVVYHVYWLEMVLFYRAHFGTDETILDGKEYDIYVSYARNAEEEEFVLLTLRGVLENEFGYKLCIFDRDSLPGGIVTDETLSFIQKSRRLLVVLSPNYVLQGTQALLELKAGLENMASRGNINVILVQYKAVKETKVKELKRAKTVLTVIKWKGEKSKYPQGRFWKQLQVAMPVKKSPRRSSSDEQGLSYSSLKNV

B1: Anti-IL-1RAP-C3-A3 mmIgG2a LALA (antibody, V domains shown)
VH: EVQLLESGGGLVQPGGSLRLSCAASGFIFSHYGMSWVRQAPGKGLEWVSAISYDGEGTLYADSVKGRFTISRDNSKNTLYLQMNSLRAEDTAVYYCARFRYYTAFDYWGQGTLVTVSS
VL: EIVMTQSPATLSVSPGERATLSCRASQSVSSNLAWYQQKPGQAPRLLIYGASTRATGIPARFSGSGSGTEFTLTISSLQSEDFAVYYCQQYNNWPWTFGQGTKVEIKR
notes: also called anti-IL-1RAP-C3-A3 mouse IgG2a LALA
B2: Anti-IL-1RAP-C8-RecC-ES-IgG1LALA (antibody, V domains shown)
VH: QVQLVQSGAEVKKPGSSVKVSCKASGSPAEPYAIQWVRQAPGQGLEWMGYIIPSLGGYDYAQKFQGRVTITADESTSTAYMELSSLRSEDTAVYYCARGQTLYESGRQFDIWGQGTLVTVSS
VL: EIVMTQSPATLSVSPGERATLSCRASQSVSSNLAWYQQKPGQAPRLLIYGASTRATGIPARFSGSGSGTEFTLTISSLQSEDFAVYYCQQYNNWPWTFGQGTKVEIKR
notes: also called ISB 880-C8-recC-ES

Key:
[1] = molecular target: T1, Recombinant mouse IL-1RAP-his (Sino …); test: SPR, mouse IgG2a LALA captured by anti-mouse Fc, mouse IL-1RAP-his as analyte, 1:1 fit
Description: Surface plasmon resonance (SPR) was used to measure the binding affinities of mouse IgG2a LALA molecules for mouse IL-1RAP. Affinity was measured on a BIACORE™ T200 instrument (BIACORE™ GE […]®) at 25° C. and analyzed with the BIACORE™ T200 Evaluation Software (v3.1). Measurements were performed on Series S CM5 sensor chips (BIACORE™ T200, BIACORE™, GE […]®, catalog no. BR100530) coupled with anti-mouse IgG Fc (BIACORE™, GE […]®, catalog no. BR100838) using a commercial amine coupling kit (BIACORE™, GE […]®, catalog no. BR100050). SPR measurements were performed with commercially available recombinant mouse IL-1RAP-his (Sino Biologicals, catalog no. 52657-M08H). The affinity to mouse IL-1RAP was assessed by immobilizing anti-mouse IL-1RAP mouse IgG2a LALA molecule and using mouse IL-1RAP protein as analyte. Around 150 RU of mouse IgG2a LALA was captured on fc2 of a Series S CM5 sensor chip coupled with anti-mouse IgG Fc. Mouse IL-1RAP-his was injected in multi cycle kinetic at different concentrations ranging from 0.14 to 100 nM, in HBS-EP+ buffer (BIACORE™, GE […]®, catalog no. BR100669) at a flow rate of 30 μl/min for 3 min on fc1 and fc2 (fc1 being used as reference). Dissociation was monitored for 15 min. After each cycle, the surface was regenerated with 60 μl of regeneration solution provided with anti-mouse IgG Fc capture kit (BIACORE™ GE […]®, catalog no. BR100838). Experimental data were processed using the 1:1 Langmuir kinetic fitting model. Measurements included zero-concentration samples for referencing. Chi², U- and residual values were used to evaluate the quality of a fit between the experimental data and individual binding models.

[2] = molecular target: T2, Human IL-1RAP, membrane-bound on human …; test: flow cytometry on human neutrophils, anti-human IgG PE-Cyanine7, relative geometric MFI (isotype subtracted)
Description: A dose-response of anti-human IL-1RAP_candidate_1 (●) or Isotype control_5 (▪) was incubated with various cell lines and cell types. Bound antibodies were detected with a monoclonal anti-human IgG PE-Cyanine7 secondary antibody. The graphs show the nonlinear sigmoidal regression binding curves (Relative Geometric Mean Fluorescence Intensity) for each cell lines. Each data point is a measurement for a given cell line. Multiple independent experiments were performed across several donors (HaCaT and HaCaT IL-1RAP KO: 4 and 3 independent experiments; Human Dermal Fibroblasts: 2 independent experiments—total of 5 donors; Human Neutrophil: 2 experiments—total of 6 donors; Cyno Dermal Fibroblasts: 2 independent experiment—total of 4 donors).
In brief, cells were harvested, counted, and plated at 50,000 cells/well in a 96-well round-bottom plate. […] The cells were gated based on size on FSC vs SSC and analyzed for PE-Cyanine7-geometric mean (geomean) fluorescence intensity using FLOWJO® software. Finally, relative geomean fluorescence intensity was calculated by subtracting fluorescence of anti-human IL-1RAP_candidate_1 per fluorescence of Isotype control_5. […]

Row | Binder | Kd [1] [nM] | koff [1] [s⁻¹] | kon [1] [M⁻¹ s⁻¹] | EC50 (read off the curve) [2] [µg/mL]
1 | B1 | 0.545 | 7.46e-05 | 138000 | 
2 | B2 |  |  |  | ~0.2
